Experimental data from the Immune Epitope Database (IEDB).

Key:
[1] = biological target: HLA-B*39:01; experiment: IEDB peptide-MHC binding, purified MHC/competitive/fluorescence; filed as Kd, often an IC50 or EC50 that approximates it; ≥ and ≤ were set here for values at or beyond the usual limits of such assays; conditions: source organism: Bacillus anthracis str. A0488
[2] = biological target: HLA-A*03:01; experiment: IEDB peptide-MHC binding, purified MHC/direct/fluorescence; filed as Kd, often an IC50 or EC50 that approximates it; ≥ and ≤ were set here for values at or beyond the usual limits of such assays
[3] = biological target: HLA-A*31:01; experiment: as above
[4] = biological target: HLA-A*30:02; experiment: IEDB peptide-MHC binding, purified MHC/competitive/radioactivity; filed as Kd, often an IC50 or EC50 that approximates it; ≥ and ≤ were set here for values at or beyond the usual limits of such assays
[5] = biological target: HLA-A*30:01; experiment: as above
[6] = biological target: HLA-A*32:01; experiment: as above
[7] = biological target: HLA-A*01:01; experiment: as above
[8] = biological target: HLA-A*26:01; experiment: as above
[9] = biological target: HLA-A*29:02; experiment: as above
[10] = biological target: HLA-B*44:02; experiment: as above
[11] = biological target: HLA-B*07:02; experiment: IEDB peptide-MHC binding, purified MHC/direct/fluorescence; filed as Kd, often an IC50 or EC50 that approximates it; ≥ and ≤ were set here for values at or beyond the usual limits of such assays; conditions: source organism: Homo sapiens
[12] = biological target: HLA-A*69:01; experiment: as above
[13] = biological target: HLA-A*01:01; experiment: as above
[14] = biological target: HLA-A*02:01; experiment: as above; conditions: source organism: Bacillus licheniformis
[15] = biological target: HLA-A*11:01; experiment: as above
[16] = biological target: HLA-B*15:01; experiment: as above
[17] = biological target: HLA-A*26:01; experiment: as above
[18] = biological target: HLA-A*02:01; experiment: IEDB peptide-MHC binding, purified MHC/competitive/fluorescence; filed as Kd, often an IC50 or EC50 that approximates it; ≥ and ≤ were set here for values at or beyond the usual limits of such assays
[19] = biological target: HLA-A*02:02; experiment: IEDB peptide-MHC binding, purified MHC/competitive/radioactivity; filed as Kd, often an IC50 or EC50 that approximates it; ≥ and ≤ were set here for values at or beyond the usual limits of such assays; conditions: source organism: Vaccinia virus WR
[20] = biological target: HLA-A*02:06; experiment: as above; conditions: source organism: Vaccinia virus WR
[21] = biological target: HLA-A*02:03; experiment: as above; conditions: source organism: Vaccinia virus WR
[22] = biological target: HLA-B*44:03; experiment: as above
[23] = biological target: HLA-A*33:01; experiment: as above; conditions: source organism: SARS coronavirus Tor2
[24] = biological target: HLA-A*68:01; experiment: as above; conditions: source organism: SARS coronavirus Tor2
[25] = source organism: Burkholderia lata
[26] = source organism: Mammarenavirus choriomeningitidis
[27] = source organism: Dengue virus 1 Brazil/97-11/1997
[28] = source organism: Dengue virus 4 Philippines/H241/1956
[29] = source organism: Bacillus licheniformis
[30] = source organism: Mammarenavirus brazilense
[31] = source organism: Mammarenavirus guanaritoense
[32] = source organism: Vaccinia virus WR
[33] = source organism: Cryptosporidium parvum
[34] = source organism: Mycoplasmoides genitalium
[35] = source organism: Dengue virus 2 Jamaica/1409/1983
[36] = source organism: Giardia intestinalis

Sequence FKWGKKIIL has a Kd [1] of 0.0126 µM.
Work on SINDPRWGR yielded a Kd [2, 25] of no less than 20 µM and a Kd [3, 25] of 0.0274 µM.
In the case of EIFSMMVSSF, the Kd [4, 26] is reported as 13.2 µM, the Kd [5, 26] is reported as 0.94 µM and the Kd [6, 26] is reported as 1.29 µM. For the same sequence, the Kd [7, 26] was 7.59 µM, the Kd [8, 26] was 0.00379 µM and the Kd [9, 26] was 1.37 µM.
WRFQGSWNTG was tested, and the Kd [6, 27] was no less than 49 µM.
For AGADTSEVHW, the Kd [10, 28] was 4.92 µM.
Sequence LPRWPPPQL has a Kd [11] of 0.164 µM and a Kd ([12]; source organism: Homo sapiens) of 5.5 µM.
Sequence ALMEITSRY has a Kd [2, 29] of 0.259 µM, a Kd [3, 29] of 5.28 µM and a Kd [12, 29] of 11.7 µM. It also gave a Kd [13, 29] of 1.04 µM, a Kd [14] of 4.81 µM and a Kd [15, 29] of 0.605 µM. The Kd [16, 29] was 0.0905 µM.
For ESAQPGLLSY, the Kd [4, 30] was 1.69 µM, the Kd [5, 30] was no less than 70.4 µM and the Kd [6, 30] was no less than 69.9 µM. The Kd [7, 30] was 0.0698 µM, the Kd [8, 30] was 0.0143 µM and the Kd [9, 30] was 3.09 µM.
Work on SVSGTFVAEF yielded a Kd [4, 31] of 7.91 µM, a Kd [5, 31] of no less than 40 µM and a Kd [6, 31] of 4.41 µM. It also gave a Kd [7, 31] of no less than 45.2 µM, a Kd [8, 31] of 3.07 µM and a Kd [9, 31] of 9.06 µM.
Sequence KINEVVEIF has a Kd [6, 32] of 0.0193 µM.
In the case of ITHFCSFNI, the Kd [6, 32] is reported as no less than 20.9 µM.
For ETPQGLAKI, the Kd ([17]; source organism: West Nile virus) was 5.56 µM.
Sequence MIRTWRQNK has a Kd [2, 33] of 0.226 µM and a Kd [3, 33] of 0.364 µM.
AMHDKKIDIL was tested, and the Kd ([18]; source organism: Variola major virus) was 0.222 µM, the Kd [19] was 0.387 µM and the Kd [20] was no less than 69.8 µM. For the same sequence, the Kd [21] was 1.18 µM.
With QTDPLWQKY the Kd ([17]; source organism: Vibrio vulnificus CMCP6) was 2.78 µM.
Sequence YSDIPRLKK has a Kd [2, 34] of 0.372 µM, a Kd [3, 34] of 0.767 µM and a Kd [12, 34] of 0.412 µM. For the same sequence, the Kd [13, 34] was 1.64 µM and the Kd [15, 34] was 0.0927 µM.
For KTPVESWEEI, the Kd ([6]; source organism: Dengue virus 2 Peru/IQT2913/1996) was 1.61 µM.
For MEDKTHVSSW, the Kd [22, 27] was 0.111 µM and the Kd [10, 27] was 0.0823 µM.
Sequence NMKWKFNAL has a Kd ([18]; source organism: Campylobacter jejuni subsp. jejuni NCTC 11168 = ATCC 700819) of no less than 20 µM.
For LERAADVKW, the Kd [22, 35] was 0.214 µM and the Kd [10, 35] was 0.13 µM.
With ATDFKFAMY the Kd ([2]; source organism: Homo sapiens) was 7.81 µM, the Kd ([13]; source organism: Homo sapiens) was 0.135 µM and the Kd ([15]; source organism: Homo sapiens) was 2.41 µM. It also gave a Kd ([16]; source organism: Homo sapiens) of 4.1 µM.
EENMEVEIW gave a Kd [22, 28] of 0.0815 µM and a Kd [10, 28] of 0.0234 µM.
Work on VTFQGKFKK yielded a Kd ([3]; source organism: SARS-CoV1) of 0.0703 µM, a Kd [23] of 8.58 µM and a Kd [24] of 0.0133 µM.
In the case of SLRPNDIVY, the Kd [2, 36] is reported as 13.6 µM, the Kd [15, 36] is reported as 7.04 µM and the Kd [16, 36] is reported as 0.15 µM.
Work on KLGIGNSPV yielded a Kd ([18]; source organism: Vaccinia virus Copenhagen) of 0.006 µM.
GERKKLKPRW showed a Kd [22, 35] of 1.45 µM and a Kd [10, 35] of 0.839 µM.
HIIIVALTI gave a Kd [6, 32] of 0.0788 µM.
Sequence KEVSETQHG has a Kd ([10]; source organism: Dengue virus 3 Martinique/1243/1999) of 6.77 µM.
With TLFPGDDDL the Kd [18, 32] was 0.394 µM.
For ILNFVAHVY, the Kd [4, 31] was 0.000522 µM, the Kd [5, 31] was 3.14 µM and the Kd [6, 31] was 0.939 µM. The Kd [7, 31] was 7.94 µM, the Kd [8, 31] was 12 µM and the Kd [9, 31] was 0.00124 µM.
